Experimental data from PMC9482650, “Quantitative fragmentomics allow affinity mapping of interactomes” (Nature Communications, 2022).
Blank lines part the entries; values can stand above or below the binder they belong to.

Assays:
Assay in all cases: holdup assay
Parameters in all cases: key: below the threshold = too weak to quantify, mostly under pKd 3.1 to 4
[1] = target: T1, ARHGAP21, Q5T5U3
T1 sequence (Q5T5U3 45-169, limits assumed, looked up): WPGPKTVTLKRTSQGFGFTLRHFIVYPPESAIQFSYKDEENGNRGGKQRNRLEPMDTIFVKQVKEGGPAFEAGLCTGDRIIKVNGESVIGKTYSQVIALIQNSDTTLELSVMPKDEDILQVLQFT

[2] = target: T2, DFNB31_2, Q9P202
T2 sequence (Q9P202 274-371, limits assumed, looked up): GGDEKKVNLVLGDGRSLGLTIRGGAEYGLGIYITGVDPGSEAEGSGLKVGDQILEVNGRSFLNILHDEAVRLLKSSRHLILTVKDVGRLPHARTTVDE

[3] = target: T3, DFNB31_3, Q9P202
T3 sequence (Q9P202 811-907, limits assumed, looked up): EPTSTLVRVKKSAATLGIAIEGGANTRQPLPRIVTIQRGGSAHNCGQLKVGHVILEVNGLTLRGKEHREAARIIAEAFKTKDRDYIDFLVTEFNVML

[4] = target: T4, DLG3_2, Q92796
T4 sequence (Q92796 221-321, limits assumed, looked up): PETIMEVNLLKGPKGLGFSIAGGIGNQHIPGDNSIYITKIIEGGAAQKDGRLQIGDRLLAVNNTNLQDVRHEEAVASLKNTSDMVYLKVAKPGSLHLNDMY

[5] = target: FRMPD3, Q5JV73
[6] = target: T5, GRIP1_4, Q9Y3R0
T5 sequence (Q9Y3R0 467-571, limits assumed, looked up): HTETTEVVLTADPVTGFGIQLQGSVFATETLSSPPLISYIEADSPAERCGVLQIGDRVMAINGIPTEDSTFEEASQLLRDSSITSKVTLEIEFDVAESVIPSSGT

[7] = target: GRIP2_6, Q9C0E4
[8] = target: HTRA1, Q92743
[9] = target: IL16_1, Q14005
[10] = target: Inadl_3, Q8NI35
[11] = target: Inadl_4, Q8NI35
[12] = target: LIMK2, P53671
[13] = target: MAGI2_2, Q86UL8
[14] = target: MAGI3_2, Q5TCQ9
[15] = target: T6, MPDZ_10, O75970
T6 sequence (O75970 1624-1722, limits assumed, looked up): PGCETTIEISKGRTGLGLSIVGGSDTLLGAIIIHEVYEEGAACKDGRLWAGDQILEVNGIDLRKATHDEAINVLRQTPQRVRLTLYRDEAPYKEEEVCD

[16] = target: T7, MPDZ_12, O75970
T7 sequence (O75970 1857-1958, limits assumed, looked up): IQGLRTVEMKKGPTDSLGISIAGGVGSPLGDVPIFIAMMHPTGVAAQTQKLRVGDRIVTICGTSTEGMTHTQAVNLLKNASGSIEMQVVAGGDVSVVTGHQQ

[17] = target: T8, MPDZ_5, O75970
T8 sequence (O75970 695-796, limits assumed, looked up): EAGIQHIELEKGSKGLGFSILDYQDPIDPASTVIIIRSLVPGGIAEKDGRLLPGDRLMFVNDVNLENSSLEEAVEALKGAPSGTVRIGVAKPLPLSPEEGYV

[18] = target: T9, MPP7, Q5T2T1
T9 sequence (Q5T2T1 134-230, limits assumed, looked up): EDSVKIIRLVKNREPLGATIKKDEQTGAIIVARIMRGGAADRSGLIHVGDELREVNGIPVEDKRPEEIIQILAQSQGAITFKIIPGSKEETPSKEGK

[19] = target: PDLIM1, O00151
[20] = target: T10, PDZD2_2, O15018
T10 sequence (O15018 329-429, limits assumed, looked up): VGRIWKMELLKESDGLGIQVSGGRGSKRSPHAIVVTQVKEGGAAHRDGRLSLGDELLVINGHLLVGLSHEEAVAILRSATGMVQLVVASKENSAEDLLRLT

[21] = target: T11, PDZRN3_1, Q9UPQ7
T11 sequence (Q9UPQ7 244-349, limits assumed, looked up): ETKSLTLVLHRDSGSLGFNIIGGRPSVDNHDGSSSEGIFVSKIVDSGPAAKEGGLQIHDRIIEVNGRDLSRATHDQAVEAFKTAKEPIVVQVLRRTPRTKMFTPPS

[22] = target: T12, SNTA1, Q13424
T12 sequence (Q13424 82-180, limits assumed, looked up): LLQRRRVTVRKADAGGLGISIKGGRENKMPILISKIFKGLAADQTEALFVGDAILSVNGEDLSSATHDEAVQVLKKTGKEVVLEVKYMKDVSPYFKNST

[23] = target: TJP1_2, Q07157
[24] = target: T13, TX1BP3, O14907
T13 sequence (O14907 10-122, limits assumed, looked up): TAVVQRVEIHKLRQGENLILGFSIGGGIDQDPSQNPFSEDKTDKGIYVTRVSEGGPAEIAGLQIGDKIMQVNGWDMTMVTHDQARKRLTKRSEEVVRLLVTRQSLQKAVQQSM

[25] = plain residues with an end cap or a label only (N-terminal biotin on a linker: ado-ado)
[26] = plain residues with an end cap or a label only (N-terminal biotin on a linker: ahx)

LIMK2, P53671, sequence (P53671 143-248): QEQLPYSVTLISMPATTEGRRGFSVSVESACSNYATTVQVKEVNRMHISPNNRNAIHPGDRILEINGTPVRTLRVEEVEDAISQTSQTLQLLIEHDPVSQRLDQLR
GRIP2_6, Q9C0E4, sequence (Q9C0E4 648-740): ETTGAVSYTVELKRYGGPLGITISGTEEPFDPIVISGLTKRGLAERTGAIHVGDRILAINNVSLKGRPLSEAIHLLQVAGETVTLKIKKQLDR
Inadl_4, Q8NI35, sequence (Q8NI35 547-651): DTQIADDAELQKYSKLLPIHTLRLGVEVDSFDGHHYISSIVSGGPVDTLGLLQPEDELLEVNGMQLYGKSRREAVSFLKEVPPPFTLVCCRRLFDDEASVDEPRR
TJP1_2, Q07157, sequence (Q07157 181-274): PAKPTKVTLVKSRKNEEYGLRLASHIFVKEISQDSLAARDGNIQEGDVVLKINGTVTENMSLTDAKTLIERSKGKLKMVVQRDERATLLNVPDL
PDLIM1, O00151, sequence (O00151 1-87): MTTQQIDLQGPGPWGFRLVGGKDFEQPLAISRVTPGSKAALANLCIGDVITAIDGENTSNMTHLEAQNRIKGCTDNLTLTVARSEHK
MAGI2_2, Q86UL8, sequence (Q86UL8 410-522): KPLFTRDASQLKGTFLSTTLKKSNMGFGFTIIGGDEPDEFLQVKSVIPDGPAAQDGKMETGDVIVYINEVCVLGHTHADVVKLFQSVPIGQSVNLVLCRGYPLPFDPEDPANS
HTRA1, Q92743, sequence (Q92743 360-477): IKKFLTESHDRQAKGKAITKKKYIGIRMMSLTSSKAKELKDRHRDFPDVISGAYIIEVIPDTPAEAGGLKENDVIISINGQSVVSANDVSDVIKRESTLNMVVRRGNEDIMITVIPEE
MAGI3_2, Q5TCQ9, sequence (Q5TCQ9 398-503): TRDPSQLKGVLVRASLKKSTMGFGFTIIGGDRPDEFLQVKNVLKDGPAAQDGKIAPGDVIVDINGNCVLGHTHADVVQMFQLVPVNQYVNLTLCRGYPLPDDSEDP
FRMPD3, Q5JV73, sequence (Q5JV73 12-100): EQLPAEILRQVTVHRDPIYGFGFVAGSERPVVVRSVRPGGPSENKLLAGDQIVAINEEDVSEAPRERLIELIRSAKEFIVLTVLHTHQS
IL16_1, Q14005, sequence (Q14005 210-306): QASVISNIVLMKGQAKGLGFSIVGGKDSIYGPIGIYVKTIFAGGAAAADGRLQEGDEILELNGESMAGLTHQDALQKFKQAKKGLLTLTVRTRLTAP
Inadl_3, Q8NI35, sequence (Q8NI35 359-469): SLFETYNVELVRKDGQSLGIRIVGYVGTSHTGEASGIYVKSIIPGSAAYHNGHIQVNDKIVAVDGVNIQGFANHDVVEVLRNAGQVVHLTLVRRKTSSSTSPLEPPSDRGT

pKd [1, 25]: 3.86 | pKd [2, 25]: below the threshold | pKd [3, 25]: below the threshold | pKd [4, 25]: 4.59 | pKd [5, 25]: below the threshold | pKd [6, 25]: below the threshold | pKd [7, 25]: below the threshold | pKd [8, 25]: below the threshold | pKd [9, 25]: below the threshold | pKd [10, 25]: below the threshold | pKd [11, 25]: below the threshold | pKd [12, 25]: below the threshold | pKd [13, 25]: 4.93 | pKd [14, 25]: 5.05 | pKd [15, 25]: 3.84 | pKd [16, 25]: below the threshold | pKd [17, 25]: below the threshold | pKd [18, 25]: below the threshold | pKd [19, 25]: below the threshold | pKd [20, 25]: 3.81 | pKd [21, 25]: 3.97 | pKd [22, 25]: 3.93 | pKd [23, 25]: below the threshold | pKd [24, 25]: 5.01
B1: CACNG8, Q8WXS5 (peptide)
chain: NTLNRKTTPV

pKd [1, 25]: below the threshold | pKd [2, 25]: below the threshold | pKd [3, 25]: 3.83 | pKd [4, 25]: 4.14 | pKd [5, 25]: below the threshold | pKd [6, 25]: below the threshold | pKd [7, 25]: below the threshold | pKd [8, 25]: 3.85 | pKd [9, 25]: 3.61 | pKd [10, 25]: below the threshold | pKd [11, 25]: below the threshold | pKd [12, 25]: below the threshold | pKd [13, 25]: 3.8 | pKd [14, 25]: 3.99 | pKd [15, 25]: below the threshold | pKd [16, 25]: 3.56 | pKd [17, 25]: below the threshold | pKd [18, 25]: below the threshold | pKd [19, 25]: below the threshold | pKd [20, 25]: 4.79 | pKd [21, 25]: below the threshold | pKd [22, 25]: below the threshold | pKd [23, 25]: below the threshold | pKd [24, 25]: below the threshold
B2: KCNJ18, B7U540 (peptide)
chain: QRPYRRGSEI

pKd [1, 26]: below the threshold | pKd [2, 26]: below the threshold | pKd [3, 26]: below the threshold | pKd [4, 26]: below the threshold | pKd [5, 26]: below the threshold | pKd [6, 26]: below the threshold | pKd [7, 26]: below the threshold | pKd [8, 26]: below the threshold | pKd [9, 26]: below the threshold | pKd [10, 26]: below the threshold | pKd [11, 26]: below the threshold | pKd [12, 26]: below the threshold | pKd [13, 26]: 4.18 | pKd [14, 26]: 4.28 | pKd [15, 26]: below the threshold | pKd [16, 26]: below the threshold | pKd [17, 26]: below the threshold | pKd [18, 26]: below the threshold | pKd [19, 26]: below the threshold | pKd [20, 26]: below the threshold | pKd [21, 26]: 4.16 | pKd [22, 26]: below the threshold | pKd [23, 26]: below the threshold | pKd [24, 26]: 4.17
B3: FRMPD1, Q5SYB0 (peptide)
chain: TQKFRASTAL
